Data as given in patent US20230192824A1 (UNITED STATES OF AMERICA AS REPRESENTED BY THE SECRETARY OF …, published 2023).
Changes are numbered by the printed parent chain.

T1: CfaE, tip adhesin of CFA/I fimbriae on wild type ETEC strain H10407 (Escherichia coli (ETEC) strain H10407, UniProt P25734 23-360)
T1 sequence: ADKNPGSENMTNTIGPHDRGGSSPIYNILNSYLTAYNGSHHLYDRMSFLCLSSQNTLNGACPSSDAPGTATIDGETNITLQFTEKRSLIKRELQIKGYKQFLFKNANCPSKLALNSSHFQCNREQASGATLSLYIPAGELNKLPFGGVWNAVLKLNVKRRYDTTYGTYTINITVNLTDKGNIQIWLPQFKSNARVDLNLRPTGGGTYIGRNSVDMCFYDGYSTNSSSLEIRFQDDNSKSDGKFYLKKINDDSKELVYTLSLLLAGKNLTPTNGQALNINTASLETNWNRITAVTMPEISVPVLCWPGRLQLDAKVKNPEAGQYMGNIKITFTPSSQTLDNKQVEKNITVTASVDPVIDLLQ

T2: CsbD, tip adhesin of CS17 fimbriae on wild type ETEC strain WS6788A (Escherichia coli (ETEC) strain WS6788A)
T2 chain: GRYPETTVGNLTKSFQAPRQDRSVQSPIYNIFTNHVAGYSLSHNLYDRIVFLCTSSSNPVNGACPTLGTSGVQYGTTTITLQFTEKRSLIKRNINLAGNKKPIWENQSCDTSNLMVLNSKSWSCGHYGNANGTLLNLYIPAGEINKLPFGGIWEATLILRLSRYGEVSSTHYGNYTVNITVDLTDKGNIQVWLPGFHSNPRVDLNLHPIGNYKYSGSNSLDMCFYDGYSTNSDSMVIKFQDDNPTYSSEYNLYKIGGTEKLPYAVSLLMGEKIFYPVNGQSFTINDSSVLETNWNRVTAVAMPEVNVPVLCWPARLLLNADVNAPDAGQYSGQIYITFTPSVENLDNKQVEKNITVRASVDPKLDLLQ

T3: CsbD L85I, tip adhesin of CS17 fimbriae on wild type ETEC strain WS4240A (Escherichia coli (ETEC) strain WS4240A)
T3 chain: T2 chain with L67I

T4: CsbD L85I/H144A, tip adhesin of CS17 fimbriae on wild type ETEC strain LSN02-013966/A (Escherichia coli (ETEC) strain …)
T4 chain: T2 chain with L67I, H126A

T5: CotD, tip adhesin of CS2 fimbriae on wild type ETEC strain C91f (Escherichia coli (ETEC) strain C91f)
T5 chain: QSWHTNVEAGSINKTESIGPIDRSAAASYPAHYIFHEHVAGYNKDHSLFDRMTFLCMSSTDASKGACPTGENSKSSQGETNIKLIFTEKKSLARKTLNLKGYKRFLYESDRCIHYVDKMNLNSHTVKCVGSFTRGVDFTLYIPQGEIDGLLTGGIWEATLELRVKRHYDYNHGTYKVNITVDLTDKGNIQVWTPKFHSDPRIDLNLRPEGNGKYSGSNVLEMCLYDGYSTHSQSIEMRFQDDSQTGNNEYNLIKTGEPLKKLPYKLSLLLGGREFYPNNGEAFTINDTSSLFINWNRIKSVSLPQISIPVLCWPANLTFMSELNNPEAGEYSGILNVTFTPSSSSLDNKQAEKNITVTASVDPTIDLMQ

T6: dsc19CfaE6xhis (H10407), donor strand complemented recombinant CFA/I fimbrial tip adhesin CfaE (Escherichia coli (ETEC) strain H10407, UniProt P25734 23-360)
T6 construct: also called dscCfaE; primary CfaE
T6 sequence: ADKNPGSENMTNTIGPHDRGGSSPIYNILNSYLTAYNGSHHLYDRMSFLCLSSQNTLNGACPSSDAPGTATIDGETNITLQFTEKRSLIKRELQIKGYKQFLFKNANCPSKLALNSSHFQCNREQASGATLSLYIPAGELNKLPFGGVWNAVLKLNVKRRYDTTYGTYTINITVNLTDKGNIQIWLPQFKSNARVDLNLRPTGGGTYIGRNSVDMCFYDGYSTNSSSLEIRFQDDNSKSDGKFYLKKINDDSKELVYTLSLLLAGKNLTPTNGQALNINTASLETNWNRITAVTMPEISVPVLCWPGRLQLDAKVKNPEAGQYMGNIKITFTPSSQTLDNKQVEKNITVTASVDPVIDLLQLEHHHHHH

T7: dsc19CotD6xhis (C91f), donor strand complemented recombinant CS2 fimbrial tip adhesin CotD (Escherichia coli (ETEC) strain C91f)
T7 construct: also called dscCotD; CS2 adhesin
T7 chain: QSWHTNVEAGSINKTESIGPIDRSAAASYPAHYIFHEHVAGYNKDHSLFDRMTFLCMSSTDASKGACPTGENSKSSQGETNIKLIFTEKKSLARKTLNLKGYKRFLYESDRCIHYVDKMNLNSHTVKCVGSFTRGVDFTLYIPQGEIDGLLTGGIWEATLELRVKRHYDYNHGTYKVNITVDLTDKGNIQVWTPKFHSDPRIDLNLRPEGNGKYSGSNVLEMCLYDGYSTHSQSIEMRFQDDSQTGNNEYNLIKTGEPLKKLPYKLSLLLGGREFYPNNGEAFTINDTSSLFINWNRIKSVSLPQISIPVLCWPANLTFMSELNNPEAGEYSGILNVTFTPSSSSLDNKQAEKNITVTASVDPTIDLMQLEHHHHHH

T8: dsc19CsbD6xhis (WS6788A), donor strand complemented recombinant CS17 fimbrial tip adhesin CsbD (Escherichia coli (ETEC) strain WS6788A)
T8 construct: also called dscCsbD; primary CsbD
T8 chain: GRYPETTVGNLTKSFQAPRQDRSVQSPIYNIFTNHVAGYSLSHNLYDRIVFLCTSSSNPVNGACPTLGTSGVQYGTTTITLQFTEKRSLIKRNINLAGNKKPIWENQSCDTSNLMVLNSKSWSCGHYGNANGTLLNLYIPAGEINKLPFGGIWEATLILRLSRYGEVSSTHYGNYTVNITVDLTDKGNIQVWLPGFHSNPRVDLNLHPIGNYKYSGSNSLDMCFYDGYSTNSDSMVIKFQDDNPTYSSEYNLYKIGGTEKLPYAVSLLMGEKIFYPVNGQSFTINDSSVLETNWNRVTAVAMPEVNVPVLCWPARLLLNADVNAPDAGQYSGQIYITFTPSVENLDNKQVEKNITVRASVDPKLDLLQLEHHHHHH

B1: anti-CsbD mouse mAb P7C2 (antibody, V domains shown)
VH: EVKLEESGGGLVQPGGSMKLSCAASGFTFSDAWMDWVRQSPEKGLEWVGKIRSEINDHATYYAESVKGRFTISRDDSKSGVYLQMNNLRAEDTGIYYCARDGYYGAMDYWGQGTSVTVSS
VL: DVQITQSPSYLAASPGETITINCRSNKSISRYLAWYQEKPGKTNKLLIYSGSTLQSGIPSRFSGSGSNTDFTLTISSLEPEDFAMYYCQQHNEYPYTFGSGTKLEIK
B2: anti-CotD mouse mAb P6B8 (antibody, V domains shown)
VH: QVTLKESGPGILQPSQTLSLTCSFSGFSLSTSGMGVGWIRQPSGKGLEWLSHIWWDDEKRYNPALKSRLTISKDTSSNQVFLKIASVDTADTATYYCARIGDRSGHAGFVYWGQGTLVTVSA
VL: DIKMTQSPSSMYASLGERVTITCKASQDINSYLSWFQQKPGKSPKTLIYRANRLVDGVPSRFSGSGSGQDYSLTISSLEYEDMGTYYCLQYDEFPYTFGGGTKLEIK
B3: anti-CfaE mouse mAb P8D10 (antibody, V domains shown)
VH: QIQLVQSGPELKKPGETVKISCKASGYTFTNYGMNWVKQAPGKGLKWMGWINTYTGQSTYADDFKGRFAFSLETSASTAHLQISNLKNEDAATYFCARMEYGNYENALDYWGQGTSVTVSS
VL: DIVMTQSHKFMSTSIGDRVSITCKASQDVSTAVVWYQQKPGHSPKLLIYSASYRYTGVPDRFTGSGSGTDFTFTISSVQAEDLAVYYCLQHFSTPRTFGGGTNLEIK
notes: also called full length P8D10 mAb
B4: anti-CfaE mouse mAb P5C7 (antibody, V domains shown)
VH: B3 VH with Q57E, S58P, A61T, H80Y, S84N, N85S, N88T, A91T, L108M, Y110S
VL: B3 VL with I2T, I15V, H42Q, S93N, T94I, N103K
B5: anti-CsbD mouse mAb P9A5 (antibody, V domains shown)
VH: EVQLQQFGAEVVKPGASVKISCKASGYTFTDYNIDWVKQSHGESLEWIGDISPNSEGTTYNQKFKGQATLTIDKSSTTAYMELRSLTSEDSAVYYCARGSGIWNGLDYWGQGTSVTVSS
VL: DIVMTQSHKFMSTSVGDRVSITCKASQDVSTAVAWYQQKPGQSPQLLIYSSSYRYVGVPDRFTGSGSGTDFTFTISSVQAEDLAVYYCHQHYSLPYTFGGGTKLEIK
notes: Isotype n.d

Target: T1, CfaE, tip adhesin of CFA/I fimbriae on …
Test: cell-based or functional assay

Binder | MIC in HAI [µg/mL]
B1 | > 250
B2 | > 250
B3 | 1.2
B4 | 1.2
B5 | > 250

Target: T2, CsbD, tip adhesin of CS17 fimbriae on …
Test: cell-based or functional assay

Binder | MIC in HAI [µg/mL]
B1 | 1
B2 | > 250
B3 | > 250
B4 | 16
B5 | 4

Target: T3, CsbD L85I, tip adhesin of CS17 fimbriae …
Test: cell-based or functional assay

Binder | MIC in HAI [µg/mL]
B1 | 2
B4 | > 250

Target: CsfD, tip adhesin of CS4 fimbriae on wild type ETEC strain BANG10-SP (Escherichia coli (ETEC) strain BANG10-SP)
Test: cell-based or functional assay

Binder | MIC in HAI [µg/mL]
B1 | > 250
B2 | > 250
B3 | > 250
B4 | > 250
B5 | > 250

Target: T4, CsbD L85I/H144A, tip adhesin of CS17 …
Test: cell-based or functional assay

Binder | MIC in HAI [µg/mL]
B1 | 1
B2 | > 250
B3 | > 250
B4 | > 250
B5 | 3.9

Target: T5, CotD, tip adhesin of CS2 fimbriae on …
Test: cell-based or functional assay

Binder | MIC in HAI [µg/mL]
B1 | > 250
B2 | 3
B3 | > 250
B4 | > 250
B5 | > 250

Target: CsuD, tip adhesin of CS14 fimbriae on wild type ETEC strain WS3294A (Escherichia coli (ETEC) strain WS3294A)
Test: cell-based or functional assay

Binder | MIC in HAI [µg/mL]
B1 | > 250
B2 | > 250
B3 | > 250
B4 | > 250
B5 | > 250

Target: CooD, tip adhesin of CS1 fimbriae on wild type ETEC strain WS1974A (Escherichia coli (ETEC) strain WS1974A)
Test: cell-based or functional assay

Binder | MIC in HAI [µg/mL]
B1 | 4
B2 | > 250
B3 | > 250
B4 | > 250
B5 | 4

Target: T6, dsc19CfaE6xhis (H10407), donor strand …
Test: ELISA on coated adhesin

Binder | binding result
B1 | no binding (tested: mAb 2 ug/ml)
B2 | no binding (tested: mAb 2 ug/ml)
B5 | no binding (tested: mAb 2 ug/ml)

Target: T7, dsc19CotD6xhis (C91f), donor strand …
Test: ELISA on coated adhesin

Binder | binding result
B1 | no binding (tested: mAb 2 ug/ml)
B3 | no binding (tested: mAb 2 ug/ml)
B4 | no binding (tested: mAb 2 ug/ml)
B5 | no binding (tested: mAb 2 ug/ml)

Target: T8, dsc19CsbD6xhis (WS6788A), donor strand …
Test: ELISA on coated adhesin

Binder | binding result
B2 | no binding (tested: mAb 2 ug/ml)
B3 | no binding (tested: mAb 2 ug/ml)

Target: T1, CfaE, tip adhesin of CFA/I fimbriae on …
Test: cell-based or functional assay
Remark: another data set of the same source

Binder | fold reduction of ETEC H10407 binding to Caco-2 cells [fold]
B3 | > 4
